Assay results taken from patent US8784824B2, “Compositions and methods for treatment of angiogenesis in pathological lesions” (Philogen S.p.A., priority 2000, dated 2014).
Each block holds one substance with its values, some of them ahead of it.

Columns and labels:
[1] = tested on: blood vessels of glioblastoma tumor; assay: Immunohistochemistry on glioblastoma tumor
Protocol: (§1) Tumor and organ specimens were processed for microautoradiography to assess the pattern of ^125I-L19-IL2 fusion protein distribution within the tumors or organs as described by Tarli et al. 1999 (12). Immunohistochemical procedures were carried out as reported by Castellani et al. 1994 (11). The nonparametric Mann-Whitney test was used to assess the differences in tumor weights between the three different groups of animals (mice treated with L19-IL2 fusion protein, with mixture of L19+IL2 and PBS).
(§2) Tumor and organ specimens were processed for microautoradiography to assess the pattern of ^125I-L19TNFα fusion protein distribution within the tumors or organs as described by Tarli et al (Blood, 94: 192-198, 1999). Immunohistochemical procedures were carried out as reported by Castellani et al (Int. J. Cancer, 59: 612-618, 1994).

[2] = molecular target: T1, ED-B domain of fibronectin (Homo sapiens, UniProt P02751); assay: Immunoreactivity of L19-mTNFα after radiolabelling; assay type: binding; design: recombinant ED-B domain of human Fibronectin (FN) as antigen; made in house; conditions: iodine-125, Iodogen method
Protocol: (§3) Purified L19-mTNFα was radiolabeled with iodine-125 using the Iodogen method (Salacinski et al., Anal. Biochem., 117: 136, 1981)(Pierce, Rockford, Ill.). After labelling, the immunoreactivity was more than 90%. 129 mice with subcutaneously implanted F9 murine teratocarcinoma were intravenously injected with 4 μg (2 μCi) of protein in 100 μl saline solution. Three animals were used for each time point. Mice were sacrificed at 3, 6, 24 and 48 hours after injection. The organs were weighed and the radioactivity was counted. All organs and tumors were placed in fixative for histological analysis and microautoradiography. Targeting results of representative organs are expressed as percent of the injected dose per gram of tissue (% ID/g).

[3] = tested on: subcutaneously implanted F9 murine teratocarcinoma; assay: Biodistribution of radiolabeled L19-mTNFα fusion protein in tumor-bearing mice; assay type: in vivo, mouse; conditions: F9 tumor-bearing 129 mice
Protocol: as §3

[4] = tested on: blood vessels of the F9 mouse tumor; assay: Microautoradiography of tumors and organs of F9 tumor-bearing mice; assay type: in vivo
Protocol: as §1, §2

[5] = tested on: C51 murine colon carcinoma; assay: In vivo treatment with L19-mTNFα fusion protein; design: species or system mouse
Protocol: Treatment with purified L19-mTNFα fusion protein was preformed in groups of 3 Balb.C mice each injected subcutaneously with 10^6 of C51 cells. At day 12 after C51 cell injection, 0.8 μg/g of L19-TNFα fusion protein was injected into the tail vein of each animal. A similar group of 3 animals was injected with Phosphate Saline Buffer, pH 7.4 (PBS). The animals were followed for systemic toxicity (weight loss) and tumor growth daily for 6 days. At the end, animals were sacrificed and tumors were placed in fixative for histological analysis and snap frozen for immunohistochemical analysis.
The efficacy of the L19-mTNFα fusion protein in suppressing tumor growth was tested on one experimental tumor model of mouse adenocarcinoma, C51. For tumor induction, 10^6 C51 cells were injected subcutaneously in Balb/C animals. After 12 days (when the tumor reaches approximately 100-200 mm^3) animals received intravenous injections of either PBS (3 animals) or L19-mTNFα fusion protein (3 animals). The animals were monitored for weight and tumor growth daily for 6 days. […] The weight loss was always less than 6% throughout the experiment time.

[6] = molecular target: T1, ED-B domain of fibronectin; assay: Binding of L19-IFN-γ fusion proteins to ED-B (ELISA, BIAcore)
tumor cells = assay: Block of tumor cell proliferation by L19-IFN-γ fusion proteins; assay type: cell-based; conditions: typical IFN-γ-dependent fashion
[7] = in vivo; cited from earlier work
[8] = molecular target: recombinant human fibronectin fragment 7B89 (human) (UniProt P02751); assay: 125I-labelled protein on a 7B89/Sepharose column
Sequence of recombinant human fibronectin fragment 7B89 (human) (P02751 1173-1537 limits assumed): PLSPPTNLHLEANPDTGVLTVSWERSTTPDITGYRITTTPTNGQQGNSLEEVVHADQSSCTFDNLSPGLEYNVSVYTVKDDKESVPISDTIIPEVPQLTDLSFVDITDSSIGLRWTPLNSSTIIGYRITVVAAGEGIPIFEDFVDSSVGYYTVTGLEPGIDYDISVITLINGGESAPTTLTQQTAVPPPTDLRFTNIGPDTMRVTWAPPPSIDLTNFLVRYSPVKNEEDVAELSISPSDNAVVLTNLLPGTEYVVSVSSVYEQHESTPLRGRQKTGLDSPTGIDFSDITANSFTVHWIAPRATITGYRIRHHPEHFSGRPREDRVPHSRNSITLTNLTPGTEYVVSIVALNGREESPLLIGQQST

T1 sequence (P02751 1271-1359 limits assumed): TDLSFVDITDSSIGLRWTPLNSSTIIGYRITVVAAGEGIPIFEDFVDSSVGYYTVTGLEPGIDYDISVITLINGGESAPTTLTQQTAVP

immunoreactivity after labelling [2]: more than 90%
Substance: L19-mTNFα fusion protein: fusion of mouse TNFα to the scFv L19 via a 15 amino acid linker
immunohistochemical staining of blood vessels [1]: strongly stain blood vessels of glioblastoma tumor
% ID/g Bladder ([3]; 3 h after i.v. injection): 37.52 ± 26.7 % ID/g
% ID/g Blood ([3]; 3 h after i.v. injection): 8.39 ± 5.0 % ID/g
% ID/g Heart ([3]; 3 h after i.v. injection): 2.69 ± 0.7 % ID/g
% ID/g Kidney ([3]; 3 h after i.v. injection): 7.96 ± 3.0 % ID/g
% ID/g Liver ([3]; 3 h after i.v. injection): 8.42 ± 1.9 % ID/g
% ID/g Lung ([3]; 3 h after i.v. injection): 6.56 ± 1.7 % ID/g
% ID/g Muscle ([3]; 3 h after i.v. injection): 1.33 ± 0.3 % ID/g
% ID/g Skin ([3]; 3 h after i.v. injection): 2.83 ± 1.3 % ID/g
% ID/g Spleen ([3]; 3 h after i.v. injection): 9.08 ± 2.0 % ID/g
% ID/g Thyroid ([3]; 3 h after i.v. injection): 3.21 ± 0.8 % ID/g
% ID/g Tumor ([3]; 3 h after i.v. injection): 22 % ID/g
% ID/g Tumor ([3]; 3 h after i.v. injection, listed as L19-TNFa fusion protein): 22.02 ± 2.3 % ID/g
% ID/g Bladder ([3]; 6 h after i.v. injection): 18.14 ± 9.1 % ID/g
% ID/g Blood ([3]; 6 h after i.v. injection): 2.13 ± 0.9 % ID/g
% ID/g Heart ([3]; 6 h after i.v. injection): 1.32 ± 0.5 % ID/g
% ID/g Kidney ([3]; 6 h after i.v. injection): 6.06 ± 5.2 % ID/g
% ID/g Liver ([3]; 6 h after i.v. injection): 2.39 ± 0.9 % ID/g
% ID/g Lung ([3]; 6 h after i.v. injection): 2.79 ± 1.4 % ID/g
% ID/g Muscle ([3]; 6 h after i.v. injection): 0.76 ± 0.2 % ID/g
% ID/g Skin ([3]; 6 h after i.v. injection): 1.68 ± 0.9 % ID/g
% ID/g Spleen ([3]; 6 h after i.v. injection): 3.29 ± 0.9 % ID/g
% ID/g Thyroid ([3]; 6 h after i.v. injection): 2.91 ± 1.8 % ID/g
% ID/g Tumor ([3]; 6 h after i.v. injection): 11.57 ± 2.7 % ID/g
% ID/g Bladder ([3]; 24 h after i.v. injection): 2.9 ± 2.2 % ID/g
% ID/g Blood ([3]; 24 h after i.v. injection): 0.09 ± 0.0 % ID/g
% ID/g Heart ([3]; 24 h after i.v. injection): 0.06 ± 0.0 % ID/g
% ID/g Kidney ([3]; 24 h after i.v. injection): 0.18 ± 0.0 % ID/g
% ID/g Liver ([3]; 24 h after i.v. injection): 0.15 ± 0.0 % ID/g
% ID/g Lung ([3]; 24 h after i.v. injection): 0.18 ± 0.1 % ID/g
% ID/g Muscle ([3]; 24 h after i.v. injection): 0.05 ± 0.0 % ID/g
% ID/g Skin ([3]; 24 h after i.v. injection): 0.03 ± 0.0 % ID/g
% ID/g Spleen ([3]; 24 h after i.v. injection): 0.13 ± 0.0 % ID/g
% ID/g Thyroid ([3]; 24 h after i.v. injection): 1.93 ± 0.5 % ID/g
% ID/g Tumor ([3]; 24 h after i.v. injection): 9.77 ± 1.4 % ID/g
% ID/g Bladder ([3]; 48 h after i.v. injection): 0.08 ± 0.0 % ID/g
% ID/g Blood ([3]; 48 h after i.v. injection): 0.01 ± 0.0 % ID/g
% ID/g Heart ([3]; 48 h after i.v. injection): 0.01 ± 0.0 % ID/g
% ID/g Kidney ([3]; 48 h after i.v. injection): 0.05 ± 0.0 % ID/g
% ID/g Liver ([3]; 48 h after i.v. injection): 0.02 ± 0.0 % ID/g
% ID/g Lung ([3]; 48 h after i.v. injection): 0.02 ± 0.0 % ID/g
% ID/g Muscle ([3]; 48 h after i.v. injection): 0.0 ± 0.0 % ID/g
% ID/g Skin ([3]; 48 h after i.v. injection): 0.01 ± 0.0 % ID/g
% ID/g Spleen ([3]; 48 h after i.v. injection): 0.01 ± 0.0 % ID/g
% ID/g Thyroid ([3]; 48 h after i.v. injection): 0.0 ± 0.0 % ID/g
% ID/g Tumor ([3]; 48 h after i.v. injection): more than 9 % ID/g
% ID/g Tumor ([3]; 48 h after i.v. injection, listed as L19-TNFa fusion protein): 9.55 ± 1.7 % ID/g
accumulation of radiolabeled fusion protein in tumor blood vessels ([4]; F9 mouse tumor, microradiographic analysis): Accumulation of the radiolabeled fusion protein was shown
accumulation of radiolabeled fusion protein in vessels of other organs ([4]; organs of F9 tumor bearing mice): No accumulation
tumor growth with respect to animals injected with PBS ([5]; 0.8 μg/g i.v. at day 12, followed 6 days (FIG. 23)): decrease in tumor growth
weight loss ([5]; throughout the experiment time (6 days)): less than 6%

binding to the ED-B domain of fibronectin [6]: bind with high-affinity
Substance: scFv(L19)-IFN-γ: IFN-γ monomer fused at the C-terminal extremity of scFv(L19)
block of proliferation of tumor cells (tumor cells): block the proliferation of tumor cells

Substance: TNFα
plasma half-life [7]: less than 30 minutes

immunoreactive fraction [8]: > 90%
Substance: L19-IL2 fusion protein (from UniProt P60568 21-153)
